Assay results: patent US20220106391A1 (ZOETIS SERVICES, published 2022)

T1: feline NGF (feline)
T1 chain: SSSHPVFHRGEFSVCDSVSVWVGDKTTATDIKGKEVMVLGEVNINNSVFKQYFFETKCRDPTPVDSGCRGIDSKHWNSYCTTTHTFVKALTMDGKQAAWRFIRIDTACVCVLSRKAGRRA

T2: canine beta-NGF (cNGF) (canine, UniProt Q29074 110-229 (pig entry))
T2 construct: also called canine NGF; can NGF
T2 chain: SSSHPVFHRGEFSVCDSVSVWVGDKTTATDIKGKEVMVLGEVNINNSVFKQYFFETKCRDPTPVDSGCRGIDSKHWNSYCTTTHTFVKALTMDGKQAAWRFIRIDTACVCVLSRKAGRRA

B1: H1-23K643 (antibody, V domains shown)
VH: DVQLVESGGDLVQPGGSLRLTCVASGFTLTQYGINWVRQAPGKGLQWVAVIWATGATDYNSALKSRFTISRDNAKNTLYLQMNSLKTEDTATYYCARDGWWYATSWYFDVWGQGALVTVSS
VL: EIQMTQSPSSLSASPGDRVTITCKASQDINHYLNWYQQKPGKVPKLLIYYTSRLHSGVPSRFSGSGSGTDFTLTISSLEPEDAATYYCQQGDHFPRTFGGGT
notes: also called ZTS-082-2D
B2: 182m43 (antibody, V domains shown)
VH: EVQLVESGGDLARPGGSLKLSCVVSGFTLTQYGINWVRQAPGKGLQWVTVIWATGATDYNSALKSRFTVSRDNAMNTVYLQMNSLRVEDTAVYYCARDGWWYATSWYFDVWGQGTLVTVSS
VL: DIVMTQTPLSLSVSPGEPASISCKASQDINHYLNWFRQKPDGTVKLLIYYTHSLHNGVPSRFSGSGSGTDFTLRISRVEADDAGVYYCQQGDHFPRTFGQGT
notes: 51 except in CDR2 (THSLHN); 51 as printed; also called Can-182-m43
B3: mAb 1B (ZTS-082) (antibody, IgG1a, V domains shown)
VH: DVQLVESGGDLVQPGGSLRLTCVASGFTLTQYGINWVRQAPGKGLQWVAVIWATGATDYNSALKSRFTISRDNAKNTLYLQMNSLKTEDTATYYCARDGWWYATSWYFDVWGQGALVTVSS
VL: DIVMTQTPLSLSVTPGEPASISCKASQDINHYLNWYLQKPDGTVKLLIYYTSRLHSGVPSRFSGSGSGTDFTLRISRVEADDVGVYYCQQGDHFPRTFGPGT
notes: Felinized IgG with feline heavy and kappa constant regions; also called ZTS-082-1B; H1-23 / KPL
B4: H733KPL (antibody, V domains shown)
VH: DVQLVESGGDLVKPGGSLRLTCVASGFTLTQYGINWVRQAPGKGLQWVAVIWATGATDYNSALKSRFTMSRDNARNTLYLQMNSLKTEDTATYYCARDGWWYATSWYFDVWGQGTLVTVSS
VL: DIVMTQTPLSLSVTPGEPASISCKASQDINHYLNWYLQKPDGTVKLLIYYTSRLHSGVPSRFSGSGSGTDFTLRISRVEADDVGVYYCQQGDHFPRTFGPGT
notes: also called ZTS-082-2E
B5: H733 L3-K36 (antibody, V domains shown)
VH: DVQLVESGGDLVKPGGSLRLTCVASGFTLTQYGINWVRQAPGKGLQWVAVIWATGATDYNSALKSRFTMSRDNARNTLYLQMNSLKTEDTATYYCARDGWWYATSWYFDVWGQGTLVTVSS
VL: DIVMTQTPLSLPVTPGEPASISCKASQDINHYLNWYLQKPGQSPRLLIYYTSRLHSGVPSRFSGSGSGTDFTLRISSVEADDVGVYYCQQGDHFPRTFGQGT
notes: also called ZTS-082-361
B6: H3AQC23L1A02D9L2 (antibody, V domains shown)
VH: EVQLVESGGDLARPGGSLKLSCVVSGFTLTQYGINWVRQAPGKGLQWVTVIWATGATDYNSALKSRFTVSRDNAMNTVYLQMNSLRVEDTAVYYCARDGWWYATSWYFDVWGQGTLVTVSS
VL: DIVMTQTPLSLSVSPGEPASISCRASQDISNYLNWFRQKPDGTVKLLIYKTNSLQTGVPSRFSGSGSGTDFTLRISRVEADDAGVYYCQQGSTLPRTFGQGT
notes: Caninized IgG
B7: 182m72 (antibody, V domains shown)
VH: EVQLVESGGDLARPGGSLKLSCVVSGFTLTQYGINWVRQAPGKGLQWVTVIWATGATDYNSALKSRFTVSRDNAMNTVYLQMNSLRVEDTAVYYCARDGWWYATSWYFDVWGQGTLVTVSS
VL: DIVMTQTPLSLSVSPGEPASISCKASQDINHYLNWFRQKPDGTVKLLIYYTSSLHQGVPSRFSGSGSGTDFTLRISRVEADDAGVYYCQQGDHFPRTFGQGT
notes: 51 except in CDR2 (TSSLHQ); 51 (CDR2 Pos. 1-6 = residues 51-56); also called Can-182-m72
B8: 182m114 (antibody, V domains shown)
VH: EVQLVESGGDLARPGGSLKLSCVVSGFTLTQYGINWVRQAPGKGLQWVTVIWATGATDYNSALKSRFTVSRDNAMNTVYLQMNSLRVEDTAVYYCARDGWWYATSWYFDVWGQGTLVTVSS
VL: DIVMTQTPLSLSVSPGEPASISCKASQDINHYLNWFRQKPDGTVKLLIYYTASLHQGVPSRFSGSGSGTDFTLRISRVEADDAGVYYCQQGDHFPRTFGQGT
notes: 51 except in CDR2 (TASLHQ); 51 (CDR2 Pos. 1-6 = residues 51-56); also called Can-182-m114
B9: H1-23L3K36 (antibody, V domains shown)
VH: DVQLVESGGDLVQPGGSLRLTCVASGFTLTQYGINWVRQAPGKGLQWVAVIWATGATDYNSALKSRFTISRDNAKNTLYLQMNSLKTEDTATYYCARDGWWYATSWYFDVWGQGALVTVSS
VL: DIVMTQTPLSLPVTPGEPASISCKASQDINHYLNWYLQKPGQSPRLLIYYTSRLHSGVPSRFSGSGSGTDFTLRISSVEADDVGVYYCQQGDHFPRTFGQGT
notes: also called ZTS-082-1C
B10: 182m75 (antibody, V domains shown)
VH: EVQLVESGGDLARPGGSLKLSCVVSGFTLTQYGINWVRQAPGKGLQWVTVIWATGATDYNSALKSRFTVSRDNAMNTVYLQMNSLRVEDTAVYYCARDGWWYATSWYFDVWGQGTLVTVSS
VL: DIVMTQTPLSLSVSPGEPASISCKASQDINHYLNWFRQKPDGTVKLLIYYTSSLHVGVPSRFSGSGSGTDFTLRISRVEADDAGVYYCQQGDHFPRTFGQGT
notes: 51 except in CDR2 (TSSLHV); 51 (CDR2 Pos. 1-6 = residues 51-56); also called Can-182-m75
B11: H3AQC2301B12L1AL1L3 (ZTS-00103182) (antibody, V domains shown)
VH: EVQLVESGGDLARPGGSLKLSCVVSGFTLTQYGINWVRQAPGKGLQWVTVIWATGATDYNSALKSRFTVSRDNAMNTVYLQMNSLRVEDTAVYYCARDGWWYATSWYFDVWGQGTLVTVSS
VL: DIVMTQTPLSLSVSPGEPASISCKASQDINHYLNWFRQKPDGTVKLLIYYTSRLHSGVPSRFSGSGSGTDFTLRISRVEADDAGVYYCQQGDHFPRTFGQGT
notes: Caninized IgG; 49 as printed runs on into CH1; the VL entry stops at FGQGT; also called ZTS-182; wt 182
B12: 182m70 (antibody, V domains shown)
VH: EVQLVESGGDLARPGGSLKLSCVVSGFTLTQYGINWVRQAPGKGLQWVTVIWATGATDYNSALKSRFTVSRDNAMNTVYLQMNSLRVEDTAVYYCARDGWWYATSWYFDVWGQGTLVTVSS
VL: DIVMTQTPLSLSVSPGEPASISCKASQDINHYLNWFRQKPDGTVKLLIYYTSSLHGGVPSRFSGSGSGTDFTLRISRVEADDAGVYYCQQGDHFPRTFGQGT
notes: 51 except in CDR2 (TSSLHG); 51 (CDR2 Pos. 1-6 = residues 51-56); also called Can-182-m70

Assays:
feline NGF = molecular target: T1, feline NGF; assay: SPR, Biacore 3000, feline NGF
Experimental: Affinities of selected felinized anti-NGF antibody to feline NGF were measured using SPR (Surface Plasmon Resonance), Biacore 3000. Kinetics of association and dissociation of a felinized mAb with/from feline NGF were measured at different concentrations.

NGF (species not stated) [1] = assay: cell-based or functional assay
canine beta-NGF (cNGF) [2] = molecular target: T2, canine beta-NGF (cNGF); assay: SPR (Biacore), cNGF binding; KD column of Table 7
canine beta-NGF (cNGF) [3] = molecular target: T2, canine beta-NGF (cNGF); assay: SPR (Biacore), cNGF binding
canine beta-NGF (cNGF) [4] = molecular target: T2, canine beta-NGF (cNGF); assay: SPR (Biacore), KD column of Table 3
rat NGF = rat NGF (rat, UniProt P25427 122-241); assay: cell-based or functional assay
NGF (species not stated) [5] = assay: cell-based or functional assay; remark: listed apart in the source
canine beta-NGF (cNGF) [6] = molecular target: T2, canine beta-NGF (cNGF); assay: cell-based or functional assay
canine beta-NGF (cNGF) [7] = molecular target: T2, canine beta-NGF (cNGF); assay: SPR (Biacore)

rat NGF, sequence (P25427 122-241 limits assumed): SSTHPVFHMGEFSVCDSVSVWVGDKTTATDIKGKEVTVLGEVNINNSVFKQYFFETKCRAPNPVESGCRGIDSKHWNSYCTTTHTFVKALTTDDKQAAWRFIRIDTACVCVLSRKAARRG

Row | Binder | Kd (feline NGF) [nM] | IC50 (nM) (pERK-1/2, cell line expressing human TrkA) (NGF (species not stated) [1]) | Kd (canine beta-NGF (cNGF) [2]) [nM] | Kd (canine beta-NGF (cNGF) [3]) [nM] | koff (canine beta-NGF (cNGF) [3]) [s⁻¹] | kon (canine beta-NGF (cNGF) [3]) [M⁻¹ s⁻¹] | other results
1 | B1 | 0.177 | 1.48 | – | – | – | – | –
2 | B2 | – | – | 4.32 | 4.32 | 3.32e-06 | 769 | –
3 | B3 | 0.00941 | 1.28 | – | – | – | – | –
4 | B4 | 0.000458 | 1.34 | – | – | – | – | –
5 | B5 | 0.000334 | 1.13 | – | – | – | – | –
6 | B6 | – | – | – | – | – | – | binding result (canine beta-NGF (cNGF) [4]): no binding
7 | B7 | – | – | 0.0741 | 0.0741 | 2.79e-07 | 3760 | –
8 | B8 | – | – | 0.707 | 0.707 | 1.27e-06 | 1790 | –
9 | B9 | 0.916 | 1.3 | – | – | – | – | –
10 | B10 | – | – | 2.03 | 2.03 | 8.99e-07 | 444 | –
11 | B11 | – | – | 0.0027 | – | – | – | IC50 nM (inhibition of neurite outgrowth, PC12 cells, rat NGF 10 ng/ml) (rat NGF): 0.21 nM; IC50 µg/ml (inhibition of neurite outgrowth, PC12 cells, rat NGF 10 ng/ml) (rat NGF): 0.031 µg/mL; IC50 nM (TF-1 proliferation inhibition, NGF 2.0 ng/ml) (NGF (species not stated) [5]): 0.046 nM; IC50 µg/ml (TF-1 proliferation inhibition, NGF 2.0 ng/ml) (NGF (species not stated) [5]): 0.00693 µg/mL; IC50 [nM] (TrkA cell based assay) (canine beta-NGF (cNGF) [6]): 1.26 nM; Kd (canine beta-NGF (cNGF) [7]): 0.061 nM
12 | B12 | – | – | 4.9 | 4.9 | 9.46e-06 | 1930 | –
